Measurements from PMC7142922.

Target: T1, TyrR (Escherichia coli DH5alpha) (UniProt P07604)
T1 sequence: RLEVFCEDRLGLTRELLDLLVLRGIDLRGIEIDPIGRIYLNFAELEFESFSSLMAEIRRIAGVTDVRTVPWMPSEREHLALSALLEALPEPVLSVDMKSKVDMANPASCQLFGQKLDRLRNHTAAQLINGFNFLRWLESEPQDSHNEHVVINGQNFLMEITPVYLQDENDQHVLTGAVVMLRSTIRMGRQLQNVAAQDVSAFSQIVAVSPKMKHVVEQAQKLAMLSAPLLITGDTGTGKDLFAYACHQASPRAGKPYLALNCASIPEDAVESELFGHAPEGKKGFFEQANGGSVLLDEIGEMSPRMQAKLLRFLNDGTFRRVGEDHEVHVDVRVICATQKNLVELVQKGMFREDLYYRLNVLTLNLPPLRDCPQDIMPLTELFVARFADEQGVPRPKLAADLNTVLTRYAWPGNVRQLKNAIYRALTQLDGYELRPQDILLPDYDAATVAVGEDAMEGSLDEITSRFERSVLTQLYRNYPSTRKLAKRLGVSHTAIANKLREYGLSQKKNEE
Experiment: EMSA
Details: TyrR EMSA: 50 mM Tris-HCl pH 7.8, 50 mM NaCl, 3 mM Mg acetate, 0.1 mM EDTA, 0.1 mM DTT, 25 ug/mL BSA, 0.1 mM Phe, 0.1 mM ATP, ~15 nM DNA, 37 C 30 min, 2% …

## CTGCAGCACTATCACTCTTTTGTCTTGGTAAGAATAATGGTATGTGACTGCGAATGCACCTGCTTTGTGCAGGGGTGATGACGAGTTGCGTAAAAAGAAAGCACTTGTAAACCCTTTTAGCATTACTCACTTTATTTTGCATAGCATGTGATGTGCGGAGAAATCTTAGCAGTGAGCAGACCAATAAATAGAATATTCAGAACGGTGTTATTTTATTGACATCGTCAGCGGGGGAGGCGTTTAATTTATATTCGGATGTCGTAAAGCTTAA (double strand) [deltaTB fragment without TyrR boxes (274 bp)]
  binding: no binding
